Consider two molecules from patent CN112794909A (GUANGZHOU EXCELMAB BIOMEDICAL TECH CO LTD, dated 2021).

Experiment [1] deals with PD-1抗原 (UniProt Q15116 25-167, limits assumed). In words: ELISA, antigen coated.
Experiment [2] addresses PD-L1抗原 (UniProt Q9NZQ7 19-238, limits assumed). In words: ELISA, antigen coated. In general terms: In an ELISA, binding on a coated surface is turned into a signal by an enzyme label.
Experiment [3] concerns the target T1, CTLA4抗原 (UniProt P16410 36-161, limits assumed).
T1 sequence (looked up): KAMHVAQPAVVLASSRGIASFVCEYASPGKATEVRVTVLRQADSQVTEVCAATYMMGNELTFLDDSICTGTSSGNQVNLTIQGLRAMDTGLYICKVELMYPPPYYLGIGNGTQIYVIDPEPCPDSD
In words: ELISA, antigen coated.

The target in experiment [4] is T2, LAG-3抗原 (UniProt P18627 23-450, limits assumed).
T2 sequence (looked up): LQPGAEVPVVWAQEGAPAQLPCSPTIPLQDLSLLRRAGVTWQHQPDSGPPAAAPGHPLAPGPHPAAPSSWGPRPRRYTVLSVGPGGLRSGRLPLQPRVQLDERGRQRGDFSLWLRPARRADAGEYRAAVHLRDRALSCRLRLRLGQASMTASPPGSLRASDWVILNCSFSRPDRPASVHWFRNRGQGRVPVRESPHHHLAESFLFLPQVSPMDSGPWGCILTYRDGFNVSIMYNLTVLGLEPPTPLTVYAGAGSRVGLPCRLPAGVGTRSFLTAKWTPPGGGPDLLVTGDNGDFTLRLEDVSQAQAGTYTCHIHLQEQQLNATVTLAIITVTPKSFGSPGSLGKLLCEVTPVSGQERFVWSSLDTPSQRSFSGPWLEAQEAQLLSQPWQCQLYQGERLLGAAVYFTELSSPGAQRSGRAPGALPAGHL
In words: ELISA, antigen coated.

Experiment [5] concerns the target T3, 重组人TIGIT蛋白抗原 (human, UniProt Q495A1 21-141, limits assumed).
T3 construct: Made as TIGIT-Fc in 293F, cut with TEV protease and purified; also called TIGIT抗原; 人TIGIT抗原
T3 sequence (looked up): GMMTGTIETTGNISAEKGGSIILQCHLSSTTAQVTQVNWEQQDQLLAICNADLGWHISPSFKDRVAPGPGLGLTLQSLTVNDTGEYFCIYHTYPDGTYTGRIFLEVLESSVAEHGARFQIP
In words: ELISA, human TIGIT antigen coated.

Experiment [6] addresses T3, 重组人TIGIT蛋白抗原. In words: ELISA, TIGIT antigen coated.
For experiment [7], the target named is T3, 重组人TIGIT蛋白抗原. In words: ELISA, TIGIT antigen coated, HRP anti-human IgG.

PD-L1抗原, sequence (Q9NZQ7 19-238 limits assumed): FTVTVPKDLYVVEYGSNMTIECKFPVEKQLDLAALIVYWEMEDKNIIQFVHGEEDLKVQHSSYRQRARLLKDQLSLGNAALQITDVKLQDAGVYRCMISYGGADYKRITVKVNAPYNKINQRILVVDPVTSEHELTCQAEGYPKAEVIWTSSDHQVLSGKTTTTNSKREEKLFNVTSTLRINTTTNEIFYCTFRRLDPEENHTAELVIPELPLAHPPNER
PD-1抗原, sequence (Q15116 25-167 limits assumed): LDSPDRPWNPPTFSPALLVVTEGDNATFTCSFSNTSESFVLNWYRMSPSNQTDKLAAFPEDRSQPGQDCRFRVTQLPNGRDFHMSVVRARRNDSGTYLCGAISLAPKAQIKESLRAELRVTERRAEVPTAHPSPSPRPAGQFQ

B1: 人源化抗体hmT251 (antibody, V domains shown)
VH: DVRLKESGPGLVKPSQTLSLTCTVSGGSITSGFWNWIRKHPGNGLEYIGYISYSGSSYYNPSLKSRVTISRDTSKNQYSLKLSSVTAADTAVYYCAAGDFGNYGYAMDVWGQGTTVTVSS
VL: DVQMTQSPSSLSASVGDRVTITCKASQRVTTAVAWYQQKPGKSPKLLIYSASYRYTGVPDRFTGSGSGTDFTLTISSLQPEDFATYYCQQYYSTPLTFGGGTKVEIK
notes: also called 人源化抗TIGIT抗体hmT251; 人源化单链抗体hmT251
By EC50 is commonly meant the concentration needed to bring the measured effect to its halfway point. A high value points to a less potent agent. Consider B1, for which the binding result in experiment [1], in experiment [2], in experiment [3] and in experiment [4] was “no binding” each time. The results for the EC50 in experiment [5] and in experiment [6] were 0.155 µg/mL and 0.0741 µg/mL, respectively.

B2: 鼠源抗TIGIT单链抗体mT251 (mT251 scFv-Fc重组蛋白) (scFv, V domains shown)
VH: DVKLKESGPSLVKPSQTLSLTCSVTGDSITSGFWNWIRKFPGNKLEYMGYISYSGSSYYNPSLKSRISITRDTSKNQYYLQLNSVTTEDTATYYCAAGDFGNYGYAMDNWGQGTSVTVSS
VL: DVLMTQSHKFMSTSVGDRVSITCKASQRVTTAVAWYQQKPGQSPKLLIYSASYRYTGVPDRFTGSGSGTDFTFTITSVQPEDLAIYYCQQYYSTPLTFGAGTKLEIK
Turning to B2, the concentration giving a half-maximal response (EC50) in experiment [7] was 0.125 µg/mL; in experiment [6], 0.099 µg/mL.
